Consider one molecule from patent US11998613B2, “Antibody-drug conjugates containing an anti-mesothelin antibody and uses thereof” (DEVELOPMENT CENTER FOR BIOTECHNOLOGY, priority 2020, dated 2024).

In series [1] the test system is Ovarian carcinoma cell line OVCAR-3 (MSLN+). In words: In vitro cytotoxicity, CellTiter-Glo luminescent cell viability assay, OVCAR-3. It is filed as cell-based, human. Conditions: OVCAR-3, 72 hours treatment; read-out: Relative IC50 (nM of toxic payload/ADCs). On the procedure: (§1) The KLM-1 & OVCAR-3 cell lines were maintained in an atmosphere of 5% CO2 in a humidified 37° C. incubator. The day before treatment, cells were collected and seeded into 96-well plates (4,000 cells per well). On the second day, cells were treated with 3-fold serial dilution concentration of toxic payloads and ADCs. Each treatment was performed in eight triplicate data points. After the treatment of 72 hours, cell viability was assessed by CellTiter-Glo® kit (Promega) according to the manufacturer's instruction. At the end of the incubation, luminescence was measured using a SpectraMax i3x Multi Mode Detection Platform (Molecular Devices). Compound cytotoxicity was evaluated in comparison to cells treated with 0.05% PBS (ADCs) or 0.05% DMSO (toxic payload). IC50 values were calculated by fitting viability data with a four-parameter logistic equation using GraphPad prism 5.0 software.
Background: Cellular ATP, detected with luciferase, serves as a proxy for viable cell number.

The test system of series [2] is Pancreatic cancer cell line KLM-1 (MSLN+). In words: In vitro cytotoxicity, CellTiter-Glo luminescent cell viability assay, KLM-1. To be noted: KLM-1, 72 hours treatment; read-out: Relative IC50 (nM of toxic payload/ADCs). Format: cell-based, human. On the procedure: as §1, with “Pancreatic cancer cell line KLM-1 was respectively grown in RPMI 1640 Medium (ATCC modification) medium supplemented with 10% fetal bovine serum. Ovarian carcinoma cell line OVCAR-3 was grown in RPMI 1640 Medium (ATCC modification) medium supplemented with 20% fetal bovine serum. The KLM-1” for “The KLM-1”

Series [3] concerns OVCAR-3 human ovarian cancer xenograft. In words: OVCAR-3 xenograft model (Example 46). Format: in vivo, female NOD SCID mice. To be noted: 15 mg/kg IV once weekly for 3 weeks. As for the experimental part: Five mice were housed in each cage.
OVCAR-3 cells were subcutaneously (SC) implanted (1×10^7 cells in 1:1 PBS/matrigel mixture at 0.2 mL per mouse) into the right flank of female NOD SCID mice. […] Each of the vehicle, DCBPR2002-4(DBCO-vc-MMAE) (15 and 30 mg/kg), and DCBPR2002-4(DBCO-vc-seco-DUBA) (15 mg/kg) was intravenously administered once weekly for 3 weeks.
Differences are considered significant at *P<0.05.

The subject of series [4] is KLM-1 human pancreatic cancer xenograft. In words: KLM-1 xenograft model (Example 45). Conditions: 15 mg/kg IV once weekly for 3 weeks. On the procedure:
Formulations respectively comprising test article DCBPR2002-4(DBCO-vc-MMAE)(15 mg/kg), test article DCBPR2002-4(DBCO-vc-seco-DUBA)(15 mg/kg), test article DCBPR2002-4(DBCO-s-DM1) (15 mg/kg), test article DCBPR2002-2(DBCO-vc-MMAE)-2(DBCO-vc-seco-DUBA) (15 mg/kg), test article DCBPR2002-2(DBCO-vc-MMAE)-2(DBCO-s-DM1) (15 mg/kg), test article DCBPR2002-2(DBCO-vc-seco-DUBA)-2(DBCO-s-DM1) (15 mg/kg), and a corresponding vehicle were formulated by diluting the stock with a 25 mM sodium citrate buffer (pH6.5). Each of the formulations was administered intravenously (IV) once weekly for three weeks.
The KLM-1 cells were maintained in vitro as a monolayer culture in RPMI-1640 medium supplemented with 10% fetal bovine serum at 37° C. in an atmosphere of 5% CO2 in air. The tumor cells were routinely sub-cultured twice weekly by trypsin-EDTA treatment. The cells growing in an exponential growth phase were harvested and counted for tumor inoculation.
Male NOD SCID mice at age of 6-7 weeks were purchased from BioLasco Taiwan Co., LTD. and quarantined for one week. Five mice were housed in each cage. All animals were hosted in the animal facility with a 12-h light/12-h dark cycle at 19-25° C. Animals had free access to rodent pellet foods and water ad libitum.
KLM-1 cells were subcutaneously (SC) implanted (4×10^6 cells in 1:1 PBS/matrigel mixture at 0.1 mL per mouse) into the right flank of male NOD SCID mice. When the average tumor volume had reached 300 mm^3, the mice were randomly divided into 7 groups (N=6 per group). Each of the vehicle, DCBPR2002-4(DBCO-vc-MMAE), DCBPR2002-4(DBCO-vc-seco-DUBA), DCBPR2002-4(DBCO-s-DM1), DCBPR2002-2(DBCO-vc-MMAE)-2(DBCO-vc-seco-DUBA), DCBPR2002-2(DBCO-vc-MMAE)-2(DBCO-s-DM1), DCBPR2002-2(DBCO-vc-seco-DUBA)-2(DBCO-s-DM1) was intravenously administered as 15 mg/kg once weekly for 3 weeks.
The tumor volumes, body weights, mortality, and signs of overt toxicity were monitored and recorded three times weekly for 28 days. Tumor volumes were measured three times per week using calipers and calculated according to the formula: Tumor Volume=(w2×l)/2, where w=width and l=length in diameter (mm) of the tumor. […] One-way ANOVA followed by Dunnett's test was applied for comparison between the vehicle and test article-treated groups. Differences are considered significant at *P<0.05. Animals were weighed three times weekly until the completion of the study.

B1: DCBPR2002-4(DBCO-vc-seco-DUBA): DCBPR2002-4Az reacted with DBCO-vc-seco DUBA; ADC, DAR ~4 (conjugate)
VH: QVQLVQSGAEVKKPGASVKVSCKASGYSFTGYTMNWVRQAPGQGLEWMGLITPYNGASSYNQKFRGRVTMTRDTSISTAYMELSRLRSDDTAVYYCARGGYDGRGFDYWGQGTLVTVSS
VL: EIVLTQSPATLSLSPGERATLSCSASSSVSYMHWYQQKPGQAPRLLIYDTSKLASGIPARFSGSGSGTDFTLTISSLEPEDFAVYYCQQWSKHPLTFGQGTKVEIKR
For B1, the IC50 is 23.9 nM in series [1] and 19.4 nM in series [2]. In addition, the body weight changes result in series [3] and in series [4] was “No body weight loss was observed” in each case. Moreover, in series [4], the “ranking of efficacy potency” value is on record as “DCBPR2002-4(DBCO-vc-seco-DUBA)=DCBPR2002-2(DBCO-vc-MMAE)-2(DBCO-vc-seco-DUBA)=DCBPR2002-2(DBCO-vc-seco-DUBA)-2(DBCO-s-DM1)>DCBPR2002-4(DBCO-vc-MMAE)>DCBPR2002-2(DBCO-vc-MMAE)-2(DBCO-s-DM1)>DCBPR2002-4(DBCO-s-DM1)”.
